The target of one assay is T1, NgR (Homo sapiens, UniProt Q9BZR6).
T1 construct: expressed in transfected cells; host or cells: COS-7
T1 sequence (Q9BZR6 27-447): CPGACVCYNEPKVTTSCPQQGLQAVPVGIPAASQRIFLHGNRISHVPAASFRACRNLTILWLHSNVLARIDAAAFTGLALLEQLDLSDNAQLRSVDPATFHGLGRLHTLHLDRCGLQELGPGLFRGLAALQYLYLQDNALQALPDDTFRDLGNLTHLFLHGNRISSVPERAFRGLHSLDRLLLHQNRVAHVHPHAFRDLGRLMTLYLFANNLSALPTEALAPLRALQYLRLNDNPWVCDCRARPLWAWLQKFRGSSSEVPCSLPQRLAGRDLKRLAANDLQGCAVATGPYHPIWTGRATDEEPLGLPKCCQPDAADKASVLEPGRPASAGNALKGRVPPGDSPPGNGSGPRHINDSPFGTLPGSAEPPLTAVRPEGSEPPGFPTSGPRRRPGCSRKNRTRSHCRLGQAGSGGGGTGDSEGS
The assay is described as follows: AP fusion protein binding to NgR expressing COS-7 cells. To be noted: for binding to NgR (COS-7 cells expressing NgR): qualitative. From the text:
Several alkaline phosphatase (AP) fusion proteins containing various Nogo-A segments derived from regions between the amino terminus and the first hydrophobic segment were examined to identify the mechanism of Amino-Nogo-A action. To generate additional AP fusion proteins, human amino Nogo fragments were amplified and ligated to the pcAP6 vector digested with restriction enzymes EcoRI and XhoI as described (Fournier, A. E., et al., Nature 409:341-346 (2001)). Plasmids were then transfected into HEK293T cells and conditioned media were collected after 7 days. None of these fragments bind with high affinity to non-transfected COS-7 cells. […] This binding is saturable with a Kd indistinguishable from that for AP-Nogo-66 association with NgR (Table I). To better define the region responsible for Amino-Nogo interaction with NgR, a range of truncation mutants of Amino-Nogo were examined as AP fusion proteins. […] In fact, the NgR-interacting segment of Amino-Nogo is fully accounted for in the extreme carboxyl 24 amino acids (aa 995-1018, Amino-Nogo-A-24) (Table I and FIG. 1D). […] We named this domain (aa 995-1013) as Amino-Nogo-A-19.
Binding Kds for AP fused Amino-Nogo fragments were measured by applying conditioned media containing AP fusion protein to NgR expressing COS-7 cells. Bound AP was stained and measured.
It has been recognized that the Amino-Nogo-A protein inhibits non-neuronal cell spreading and axonal outgrowth when the protein is substrate bound (Chen, M. S., et al., Nature 403:434-439 (2000); Fournier, A. E., et al., Nature 409:341-346 (2001)). […] The later domain has been termed Δ20. To determine whether the NgR-interacting aa of Amino-Nogo-A described in Example 1 regulate cell spreading and axonal outgrowth, various fragments were expressed as GST fusion proteins and purified from E. coli. To generate GST fusion proteins, amino Nogo fragments were cloned in pGEX2T (Amersham Pharmacia). Native and soluble GST fusion proteins were expressed and purified as described (GrandPre, T., et al., Nature 403:439-444 (2000)). COS-7 binding assays were done as described (Fournier, A. E., et al., Nature 409:341-346 (2001)). Bound AP to COS-7 cells was measured using NIH image software. Fibroblast spreading and cDRG outgrowth assay were done as described (Fournier, A. E., et al., Nature 409:341-346 (2001)) with some modifications. Briefly, 50 μl of purified GST fusion protein or peptides diluted in PBS was pipetted into polylysine precoated 96 well plates (Becton Dickson Biocoat plates) and dried overnight at room temperature. For fibroblast spreading assay, subconfluent COS-7 cells were then plated for 1 hour in serum containing medium before fixation and staining with rho damine-phalloidin.

The subject of the next assay is AP-B4C66. In words: Binding of AP-B4C66 to COS-7 cells expressing NgR mutants. To be noted: AP-B4C66 0.5 nM; level of binding compared to wild type NgR. On the set-up: key: ++: WT level; +: weaker than wild type; trace binding; −: no binding. In outline: (§1)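 COS-7 cells expressing Ala-substituted human NgR1 mutants incubated with AP-fused ligands at near-Kd levels (AP-Ng66 5 nM, AP-B4C66 0.5 nM, AP-Lingo-1 10 nM, AP-OMGP 10 nM). Bound AP stained and measured as % of wild-type NgR; graded ++/+/tr/−.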

A further assay has as its system AP-OMgp. The assay is described as follows: Binding of AP-OMgp to COS-7 cells expressing NgR mutants. More on the design: key: ++: WT level; +: weaker than wild type; trace binding; −: no binding. The note with it: AP-OMGP 10 nM; level of binding compared to wild type NgR. In outline:
as §1

A further assay concerns NgR ligands. In words: Binding of alanine substituted NgR mutants to NgR ligands, summary categories. The note with it: AP-Nogo66, AP-B4C, AP-B4C66, AP-Lingo-1, AP-OMgp and AP-MAG; compared to wild type NgR. In outline:
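Human NgR1 template; 74 mutants with 1-8 solvent-exposed charged surface residues (within 5 Å) Ala-substituted, plus glycosylation-site mutants and D259N polymorphism. Mutants tested for binding of AP-tagged Nogo66, Amino-Nogo-B4C, B4C66, MAG, OMgp and Lingo-1; each classed as losing all, keeping all, or selective ligand binding.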

For a further assay, the target named is T2, AP-Lingo-1 (Homo sapiens, UniProt Q96FE5).
T2 construct: made in house; NgR mutants: COS-7
T2 sequence (Q96FE5 40-538 limits assumed): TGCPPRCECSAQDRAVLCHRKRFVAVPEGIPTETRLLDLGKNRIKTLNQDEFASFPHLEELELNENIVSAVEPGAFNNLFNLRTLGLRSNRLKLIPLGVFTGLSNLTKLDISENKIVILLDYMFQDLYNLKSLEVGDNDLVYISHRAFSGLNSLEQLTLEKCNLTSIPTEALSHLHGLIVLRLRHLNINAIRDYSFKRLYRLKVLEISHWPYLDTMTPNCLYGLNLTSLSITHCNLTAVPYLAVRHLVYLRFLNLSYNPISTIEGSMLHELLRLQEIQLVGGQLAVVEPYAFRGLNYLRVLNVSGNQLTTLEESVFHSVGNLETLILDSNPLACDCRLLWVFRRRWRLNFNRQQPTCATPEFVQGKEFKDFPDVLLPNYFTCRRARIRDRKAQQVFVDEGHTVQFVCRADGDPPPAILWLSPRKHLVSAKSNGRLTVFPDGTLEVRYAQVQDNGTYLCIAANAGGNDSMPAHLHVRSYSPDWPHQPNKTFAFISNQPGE
In words: Binding of AP-Lingo-1 to COS-7 cells expressing NgR mutants. More on the design: key: ++: WT level; +: weaker than wild type; trace binding; −: no binding. The note with it: AP-Lingo-1 10 nM; level of binding compared to wild type NgR. The method, boiled down: as §1

Another assay has as its system AP-MAG. The assay is described as follows: Binding of AP-MAG to COS-7 cells expressing NgR mutants. More on the design: key: ++: WT level; +: weaker than wild type; trace binding; −: no binding. To be noted: AP-MAG 30 nM; level of binding compared to wild type NgR.
The target of another assay is T3, AP-Nogo66 (Homo sapiens, UniProt Q9NQC3).
T3 construct: made in house; NgR mutants: COS-7
T3 sequence (Q9NQC3 1055-1120 limits assumed): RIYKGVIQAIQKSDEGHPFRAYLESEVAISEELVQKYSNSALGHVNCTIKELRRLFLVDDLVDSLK
The assay is described as follows: Binding of AP-Nogo66 to COS-7 cells expressing NgR mutants. More on the design: key: ++: WT level; +: weaker than wild type; trace binding; −: no binding. To be noted: AP-Ng66 5 nM; level of binding compared to wild type NgR. The method, boiled down:
as §1

A further assay addresses T4, AP-B4C (Homo sapiens, UniProt Q9NQC3).
T4 construct: a.a; 950-1018 (AmNg B4C); made in house; host or cells: AP ligand: HEK293T conditioned medium; NgR mutants: COS-7
T4 sequence (Q9NQC3 950-1018): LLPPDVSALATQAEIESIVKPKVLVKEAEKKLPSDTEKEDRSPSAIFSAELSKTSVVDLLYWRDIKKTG
In words: Binding of AP-B4C to COS-7 cells expressing NgR mutants. On the set-up: key: ++: WT level; +: weaker than wild type; trace binding; −: no binding. The note with it: AP-B4C 10 nM; level of binding compared to wild type NgR.

The mark [1] stands for this setting: AP fused Amino-Nogo fragments in conditioned media on NgR expressing COS-7 cells, 'No binding at' cells continue on the next line: AmNg A 150 nM, a.a. 1000-1018, a.a. 1005-1018, Amino of NgC 25 nM, a.a. 950-1004 50 nM, Amino of NgB 100 nM.

Substitutions are numbered along the chain they refer to. No end group written: not given here.

By Kd is commonly meant the free concentration of one partner at which half of the binding sites on the other are occupied at equilibrium, for simple one-to-one binding.

IFSAELSKTSVVDLLYWRDIK [a.a. 995-1015] yielded a Kd at NgR (setting [1]) of 4.55 ± 3.66 nM.

On to “............IFSAELSKTS (LLPPDVSALATQAEIESIVKPKVLVKEAEKKLPSDTEKEDRSPSAIFSAELSKTS; also: alkaline phosphatase fusion; UniProt Q9NQC3 950-1004, looked up, fragment) [a.a. 950-1004, AP fusion protein of aa from the Nogo-A-specific region alone]”, for which the “NgR Kd (nM)” value with NgR (setting [1]) is given as “No binding”. Besides, in the assay with NgR, the “binding to NgR (COS-7 cells expressing NgR)” value was “do not bind to NgR”.

Turning to “MDGQKKNWKDKVVDLLYWRDIKKTG (not fully specified) [Amino of NgC, AP fusion protein of Amino-Nogo residues of Nogo-C]”, the “NgR Kd (nM)” value in the assay with NgR (setting [1]) is “No binding”. Also, the “binding to NgR (COS-7 cells expressing NgR)” value with NgR was “fail to associate with NgR-expressing cells”.

For “VVDLLYWRDIKKTG (also: alkaline phosphatase fusion; UniProt Q9NQC3 1005-1018, looked up, fragment) [a.a. 1005-1018, AP fusion protein of Nogo-A aa 1005-1018]”, the “NgR Kd (nM)” value with NgR (setting [1]) was “No binding”.

In the case of “LSKTSVVDLLYWRDIKKTG (also: alkaline phosphatase fusion; UniProt Q9NQC3 1000-1018, looked up, fragment) [a.a. 1000-1018, AP fusion protein of Nogo-A aa 1000-1018]”, the “NgR Kd (nM)” value with NgR (setting [1]) is given as “No binding”.

B1: 87, 89: human NgR1 mutant, listed residues mutated to alanine (protein)
chain: CPGACVCYNEPKVTTSCPQQGLQAVPVGIPAASQRIFLHGNRISHVPAASFRACRNLTILALASNVLARIDAAAFTGLALLEQLDLSDNAQLRSVDPATFHGLGRLHTLHLDRCGLQELGPGLFRGLAALQYLYLQDNALQALPDDTFRDLGNLTHLFLHGNRISSVPERAFRGLHSLDRLLLHQNRVAHVHPHAFRDLGRLMTLYLFANNLSALPTEALAPLRALQYLRLNDNPWVCDCRARPLWAWLQKFRGSSSEVPCSLPQRLAGRDLKRLAANDLQGCAVATGPYHPIWTGRATDEEPLGLPKCCQPDAADKASVLEPGRPASAGNALKGRVPPGDSPPGNGSGPRHINDSPFGTLPGSAEPPLTAVRPEGSEPPGFPTSGPRRRPGCSRKNRTRSHCRLGQAGSGGGGTGDSEGSGALPSLTCSLTPLGLALVLWTVLGPC
B1: in the assay on AP-B4C66, the B4C-66 entry is listed as “++”. The OMgp result with AP-OMgp is listed as “+”. The “ligand binding category of NgR mutant (Table II)” value (from here on “ligand binding category”) in the assay on NgR ligands is given as “Differential binding”. The Lingo-1 result with AP-Lingo-1 was “−”. Also, in the assay with AP-MAG, the MAG entry was “+”. The Ng66 result with AP-Nogo66 is “++”. Also, in the assay with AP-B4C, the B4C entry is recorded as “++”.

B2: 89, 90: human NgR1 mutant, listed residues mutated to alanine (protein)
chain: B1 chain with A61W, S64A
With B2, the B4C-66 result in the assay with AP-B4C66 is “+”. For the same molecule, in the assay with AP-OMgp, the OMgp result is “−”. Also, in the assay with NgR ligands, the “ligand binding category” value is recorded as “Differential binding”. In addition, in the assay with AP-Lingo-1, the Lingo-1 entry is reported as “−”. In the assay with AP-MAG, the MAG entry is given as “−”. The Ng66 result with AP-Nogo66 is given as “+”. For the same molecule, the B4C result in the assay with AP-B4C is “+”.

B3: 108, 131: human NgR1 mutant, listed residues mutated to alanine (protein)
chain: B1 chain with A61W, A63H, E82A, R105A
Turning to B3, the B4C-66 entry with AP-B4C66 was “+”. For the same molecule, the OMgp entry in the assay with AP-OMgp is “+”. The “ligand binding category” value in the assay with NgR ligands is listed as “Differential binding”. Also, the Lingo-1 result with AP-Lingo-1 was “−”. For the same molecule, the MAG entry in the assay on AP-MAG is listed as “tr”. For the same molecule, the Ng66 result with AP-Nogo66 was “+”. In addition, the B4C result in the assay with AP-B4C was “+”.

B4: 95, 97: human NgR1 mutant, listed residues mutated to alanine (protein)
chain: B1 chain with A61W, A63H, R69A, D71A
B4: the B4C-66 result in the assay on AP-B4C66 was “+”. The OMgp entry in the assay with AP-OMgp is recorded as “tr”. For the same molecule, the “ligand binding category” value with NgR ligands is given as “Differential binding”. Moreover, the Lingo-1 result with AP-Lingo-1 is recorded as “+”. Besides, the MAG result in the assay with AP-MAG was “tr”. In the assay with AP-Nogo66, the Ng66 result is “+”. Further, the B4C entry with AP-B4C is given as “++”.
